Laboratory results published in EP1398371A1.

Key:
[1] = target: human CD81 (human) (UniProt P60033); test: cell-based or functional assay
[2] = target: HCV E2 glycoprotein of genotype 1a (Hepatitis C virus genotype 1a) (UniProt P27958); test: cell-based or functional assay

Row | Substance | inhibition of infection by HCVpp of genotypes 1a and 1b after pre-incubation of the target cells with antibody (30 µg/ml) [1] [%] | inhibition of infectivity of HCVpp on Huh-7 cells (hCD81-LEL at 4, 8, 16 µg/ml pre-incubated with the particles) [2] [%]
1 | JS-81 anti-CD81 monoclonal antibody (Pharmingen) | > 90 | 
2 | recombinant GST-fusion polypeptide encompassing the large extra-cellular loop (LEL) of human CD81 (from UniProt P60033 113-201) |  | 38 to 54
